Article PMC10232555, “Molecular structure of soluble vimentin tetramers” (Scientific Reports, 2023)
Several values for one entry are separate records, joined by “and”; a condition that tells them apart may be missing. Equal values may be shown once.

B1: vimentin rod domain (residues 93-404) (domain or fragment)
chain: not shown
notes: vimentin, human, rod domain, residues 93-404; theoretical monomer mass printed as 36.9 kDa; also called rod fragment; rod construct; source: denatured in 8 M urea and re-natured by step-wise dialysis before analysis
B2: vimentin coil1B construct (residues 150-249) (domain or fragment)
chain: not shown
notes: vimentin, human, coil1B, residues 150-249; theoretical monomer mass printed as 12.1 kDa; also called coil1B fragment; source: denatured in 8 M urea and re-natured by step-wise dialysis before analysis
B3: vimentin ΔNrod (coil1B and coil2, residues 150-404) (domain or fragment)
chain: not shown
notes: vimentin, human, coil1B and coil2 domains, residues 150-404; theoretical monomer mass printed as 30.2 kDa; source: denatured in 8 M urea and re-natured by step-wise dialysis before analysis

Molecular target: the molecule itself
Experiment: SEC-MALS; Superdex 200 Increase 10/300 GL, HS buffer (10 mM HEPES, 150 mM NaCl, pH 7.5) after salt jump and 1 h at 37 °C; injected 0.79 mg/mL rod, 0.55 mg/mL ΔNrod, 1.52 mg/mL coil1B

| Protein | stoichiometry N |
| --- | --- |
| B1 | 4 |
| B2 | 2 |
| B3 | 2 and 4 |

Molecular target: the molecule itself
Experiment: cross-linking; truncated fragments 0.4 mg/mL in HS conditions (10 mM HEPES, 150 mM NaCl, pH 7.5); DSG and DSBU; reducing SDS-PAGE

| Protein | stoichiometry N |
| --- | --- |
| B1 | 4 |
| B2 | 2 |
| B3 | 2 |
